Test results as given in patent publication US20120114590A1 (priority 2005, published 2012).

What was measured:
[1] = biological target: T1, zcyto20 (human IL-28A) (human) (UniProt Q8IZJ0); assay: cell-based or functional assay
T1 sequence: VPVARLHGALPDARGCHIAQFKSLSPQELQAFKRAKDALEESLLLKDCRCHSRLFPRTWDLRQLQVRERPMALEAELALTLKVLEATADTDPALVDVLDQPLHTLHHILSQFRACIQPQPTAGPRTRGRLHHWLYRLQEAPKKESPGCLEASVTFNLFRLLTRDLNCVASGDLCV

[2] = biological target: zcyto21 (human IL-29) (human) (UniProt Q8IU54); assay: cell-based or functional assay
Sequence of zcyto21 (human IL-29) (human) (Q8IU54 20-200): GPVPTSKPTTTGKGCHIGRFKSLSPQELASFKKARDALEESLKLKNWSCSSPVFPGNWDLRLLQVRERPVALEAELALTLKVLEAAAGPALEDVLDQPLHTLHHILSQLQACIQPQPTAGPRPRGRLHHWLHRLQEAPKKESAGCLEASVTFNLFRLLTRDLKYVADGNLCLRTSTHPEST

[3] = biological target: T2, zcyto24 (mouse IL-28A) (mouse) (UniProt Q4VK74); assay: cell-based or functional assay
T2 sequence: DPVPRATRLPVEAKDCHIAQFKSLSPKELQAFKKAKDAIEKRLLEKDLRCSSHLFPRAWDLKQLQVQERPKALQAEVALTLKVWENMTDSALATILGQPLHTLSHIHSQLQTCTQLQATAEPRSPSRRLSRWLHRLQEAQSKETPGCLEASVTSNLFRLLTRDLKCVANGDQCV

[4] = test system: liver, spleen and blood of mice; assay: ISG gene expression (OAS, Pkr, Mx1) in liver, spleen and blood of injected C57BL/6 mice (real-time PCR); assay type: in vivo, mouse; settings: livers of mice, 100 μg i.v.
Experimental: Mice were sacrificed at various time points (1 hr-48 hr). Spleens and livers were isolated from mice, and RNA was isolated. RNA was also isolated from the blood cells. The cells were pelleted and RNA isolated from pellets using RNAEasy®-kit (Qiagen). RNA was treated with DNase (Amicon) to rid RNA of any contaminating DNA. cDNA was generated using Perkin-Elmer RT mix (Perkin-Elmer). ISG gene induction was measured by real-time PCR using primers and probes specific for mouse OAS, Pkr and Mx1. To obtain quantitative data, HPRT real-time PCR was duplexed with ISG PCR. A standard curve was calculated using known amounts of IFN-stimulated mouse PBLs. All data are shown as expression relative to internal HPRT expression.

[5] = test system: 293 HEK cells overexpressing zcytor19; assay: Inhibition of ligand-induced ISRE-luciferase signaling by soluble receptors; assay type: cell-based, human; settings: 10 micrograms/ml soluble receptor

human zcytor19-Fc/human CRF2-4-Fc heterodimer (from UniProt Q08334 20-220) (Fc fusion)
Percent Inhibition of Ligand-induced Interferon Stimulated Response Element (ISRE) Signaling by Soluble Receptors [1]: 16%
Percent Inhibition of Ligand-induced Interferon Stimulated Response Element (ISRE) Signaling by Soluble Receptors [2]: 16%
Percent Inhibition of Ligand-induced Interferon Stimulated Response Element (ISRE) Signaling by Soluble Receptors [3]: 47%

MetIL-29-PEG: E. coli derived pegylated Met IL-29
Mx1 3 hr ([4]; 3 hr): 537.51 fold expression over HPRT expression
OAS 3 hr ([4]; 3 hr): 91.29 fold expression over HPRT expression
PKR 3 hr ([4]; 3 hr): 18.24 fold expression over HPRT expression
Mx1 6 hr ([4]; 6 hr): 124.99 fold expression over HPRT expression
OAS 6 hr ([4]; 6 hr): 65.93 fold expression over HPRT expression
PKR 6 hr ([4]; 6 hr): 13.93 fold expression over HPRT expression
Mx1 12 hr ([4]; 12 hr): 33.58 fold expression over HPRT expression
OAS 12 hr ([4]; 12 hr): 54.04 fold expression over HPRT expression
PKR 12 hr ([4]; 12 hr): 4.99 fold expression over HPRT expression
Mx1 24 hr ([4]; 24 hr): 35.82 fold expression over HPRT expression
OAS (24 hr) ([4]; 24 hr): 20.81 fold expression over HPRT expression
PKR 24 hr ([4]; 24 hr): 3.77 fold expression over HPRT expression

human CRF2-4-Fc homodimer (from UniProt Q08334 20-220) (Fc fusion)
Percent Inhibition of Ligand-induced Interferon Stimulated Response Element (ISRE) Signaling by Soluble Receptors [1]: 80%
Percent Inhibition of Ligand-induced Interferon Stimulated Response Element (ISRE) Signaling by Soluble Receptors [2]: 79%
Percent Inhibition of Ligand-induced Interferon Stimulated Response Element (ISRE) Signaling by Soluble Receptors [3]: 82%

B1: human zcytor19-Fc homodimer (Fc fusion, not shown: a dimerising Fc or GST)
chain: RPRLAPPQNVTLLSQNFSVYLTWLPGLGNPQDVTYFVAYQSSPTRRRWREVEECAGTKELLCSMMCLKKQDLYNKFKGRVRTVSPSSKSPWVESEYLDYLFEVEPAPPVLVLTQTEEILSANATYQLPPCMPPLDLKYEVAFWKEGAGNKTLFPVTPHGQPVQITLQPAASEHHCLSARTIYTFSVPKYSKFSKPTCFLLEVPEANWA
Percent Inhibition of Ligand-induced Interferon Stimulated Response Element (ISRE) Signaling by Soluble Receptors [1]: 92%
Percent Inhibition of Ligand-induced Interferon Stimulated Response Element (ISRE) Signaling by Soluble Receptors [2]: 45%
Percent Inhibition of Ligand-induced Interferon Stimulated Response Element (ISRE) Signaling by Soluble Receptors [3]: 90%

B2: human zcytor19-Fc homodimeric soluble receptor: homodimeric soluble receptor Fc fusion (protein)
chain: RPRLAPPQNVTLLSQNFSVYLTWLPGLGNPQDVTYFVAYQSSPTRRRWREVEECAGTKELLCSMMCLKKQDLYNKFKGRVRTVSPSSKSPWVESEYLDYLFEVEPAPPVLVLTQTEEILSANATYQLPPCMPPLDLKYEVAFWKEGAGNKTLFPVTPHGQPVQITLQPAASEHHCLSARTIYTFSVPKYSKFSKPTCFLLEVPEANWA
modifications: left off: a dimerising Fc or GST
notes: homodimeric soluble receptor Fc fusion
inhibition of zcyto2′-induced signaling [5]: 45%

B3: huCRF2-4-Fc: homodimeric soluble receptor Fc fusion (protein)
chain: MVPPPENVRMNSVNFKNILQWESPAFAKGNLTFTAQYLSYRIFQDKCMNTTLTECDFSSLSKYGDHTLRVRAEFADEHSDWVNITFCPVDDTIIGPPGMQVEVLADSLHMRFLAPKIENEYETWTMKNVYNSWTYNVQYWKNGTDEKFQITPQYDFEVLRNLEPWTTYCVQVRGFLPDRNKAGEWSEPVCEQTTHDETVPS
modifications: left off: a dimerising Fc or GST
notes: as for B2
effect on ligand-induced signaling [5]: No significant effects

B4: murine zcytor19-Ig homodimer (Fc fusion, part only; not given: Ig Fc portion, mouse, UniProt Q8CGK5 21-227, looked up, part only)
chain, part: RPRLAPPRNVTLFSQNFTVYLTWLPGLGSPPNVTYFVTYQSYIKTGWRPVEHCAGIKALVCPLMCLKKLNLYSKFKGRVQAASAHGRSPRVESRYLEYLFDVELAPPTLVLTQMEKILRVNATYQLPPCMPSLELKYQVEFWKEGLGSKTLFPDTPYGQPVQIPLQQGASRRHCLSARTVYTLIDIKYSQFSEPSCIFLEAPGDKRA
Percent Inhibition of Ligand-induced Interferon Stimulated Response Element (ISRE) Signaling by Soluble Receptors [1]: 91%
Percent Inhibition of Ligand-induced Interferon Stimulated Response Element (ISRE) Signaling by Soluble Receptors [2]: 103%
Percent Inhibition of Ligand-induced Interferon Stimulated Response Element (ISRE) Signaling by Soluble Receptors [3]: 89%

B5: muzcytor19-Ig: murine homodimeric soluble receptor Ig fusion (protein)
chain: RPRLAPPRNVTLFSQNFTVYLTWLPGLGSPPNVTYFVTYQSYIKTGWRPVEHCAGIKALVCPLMCLKKLNLYSKFKGRVQAASAHGRSPRVESRYLEYLFDVELAPPTLVLTQMEKILRVNATYQLPPCMPSLELKYQVEFWKEGLGSKTLFPDTPYGQPVQIPLQQGASRRHCLSARTVYTLIDIKYSQFSEPSCIFLEAPGDKRA
modifications: left off: a dimerising Fc or GST
notes: murine homodimeric soluble receptor Ig fusion
effect on ligand-induced signaling [5]: No significant effects
